As usually defined, the Kd is the concentration at which binding is half-saturated. Low readings indicate a tighter complex, high ones a looser complex.

3 molecules from publication PMC9509318 (Nature Communications, 2022) can be followed below.

What all share (conditions): both partners purified
For test [1], the target named is Pfs48/45-D2 + 3 (central and C-terminal domains) (Plasmodium falciparum, UniProt Q8I6T1). Kind of test: crystal structure.
Test [2] concerns the target T1, Pfs48/45 full-length ectodomain (Plasmodium falciparum, UniProt Q8I6T1). Put plainly: negative stain electron microscopy.
For test [3], the target named is T1, Pfs48/45 full-length ectodomain. Put plainly: SPR. In general terms: Surface plasmon resonance follows binding to a sensor surface in real time, without labels.
Test [4] deals with Pfs48/45-D3 (C-terminal 6-cys domain of Pfs48/45) (Plasmodium falciparum 3D7 …, UniProt Q8I6T1). Put plainly: SPR.
Chain of Pfs48/45-D3 (C-terminal 6-cys domain of Pfs48/45) (Q8I6T1 291-428): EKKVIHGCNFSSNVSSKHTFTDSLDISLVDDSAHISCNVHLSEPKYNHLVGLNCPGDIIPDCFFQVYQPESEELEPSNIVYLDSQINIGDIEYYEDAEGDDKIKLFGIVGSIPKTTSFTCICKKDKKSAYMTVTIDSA

T1 sequence (Q8I6T1 27-427): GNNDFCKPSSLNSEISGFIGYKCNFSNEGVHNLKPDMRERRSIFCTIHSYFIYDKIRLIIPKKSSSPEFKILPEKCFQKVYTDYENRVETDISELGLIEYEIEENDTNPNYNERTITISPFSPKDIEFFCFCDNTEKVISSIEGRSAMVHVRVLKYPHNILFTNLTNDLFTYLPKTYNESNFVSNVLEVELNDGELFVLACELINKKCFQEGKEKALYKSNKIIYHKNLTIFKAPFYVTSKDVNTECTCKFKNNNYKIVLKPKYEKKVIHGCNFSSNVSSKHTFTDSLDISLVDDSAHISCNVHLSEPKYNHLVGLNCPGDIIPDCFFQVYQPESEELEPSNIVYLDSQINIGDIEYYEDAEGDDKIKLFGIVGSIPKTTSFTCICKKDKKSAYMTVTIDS
Chain of Pfs48/45-D2 + 3 (central and C-terminal domains) (Q8I6T1 159-428): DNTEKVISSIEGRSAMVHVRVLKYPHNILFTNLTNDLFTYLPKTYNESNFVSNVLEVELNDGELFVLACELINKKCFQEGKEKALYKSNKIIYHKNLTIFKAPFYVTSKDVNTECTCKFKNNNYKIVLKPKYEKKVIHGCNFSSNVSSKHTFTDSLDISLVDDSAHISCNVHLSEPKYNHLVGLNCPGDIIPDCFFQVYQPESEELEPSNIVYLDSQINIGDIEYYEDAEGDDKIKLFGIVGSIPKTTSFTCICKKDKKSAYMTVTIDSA

B1: 10D8 Fab fragment (Fab, V domains shown)
VH: EVMLVESGGDLVKPGGSLKVSCAASGFTFSNYAMSWVRQTPEKRLEWVATISSGASYTHYPDSVKGRFTISRDNAKNTLYLQMSSLRSEDTAMYYCGRQVNRHDRALDAMDYWGQGTSVTVSP
VL: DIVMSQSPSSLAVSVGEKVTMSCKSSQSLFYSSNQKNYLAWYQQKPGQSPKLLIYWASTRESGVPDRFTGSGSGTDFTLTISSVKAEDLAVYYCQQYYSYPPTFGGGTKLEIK
notes: source: hybridoma cell line, purified using protein A/G, ficin cleaved to Fab
As to B1, the binding result in test [1] and in test [2] was “binds” each time.

B2: 10D8 monoclonal antibody (antibody, V domains shown)
VH: EVMLVESGGDLVKPGGSLKVSCAASGFTFSNYAMSWVRQTPEKRLEWVATISSGASYTHYPDSVKGRFTISRDNAKNTLYLQMSSLRSEDTAMYYCGRQVNRHDRALDAMDYWGQGTSVTVSP
VL: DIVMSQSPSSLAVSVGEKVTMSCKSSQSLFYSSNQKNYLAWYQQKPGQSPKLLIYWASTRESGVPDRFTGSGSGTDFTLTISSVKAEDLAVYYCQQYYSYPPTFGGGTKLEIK
notes: source: hybridoma cell line, purified using protein A/G
Consider B2, for which the binding result in test [3] was “binds”.

B3: 32F3 monoclonal antibody (antibody, V domains shown)
VH: DVKLVESGGGLVKLGGSLKLSCAASGFTFSSYYMSWVRQTPEKRLELVAAINNNGGSTYYPDTVKGRFTISRDNAKNTLNLQMNSLKSEDTALYYCTRQHYGNLYFFDYWGQGTTLTVSS
VL: QIVLSQSPAILSASPGEKVTMTCRASSSVTYIHWYQQKPGSSPKPWIQATSSLASGVPARFSGSGSGTSYSLSISRVEAEDAATYYCQQWSSNPLTFGAGTKLELK
notes: as for B2
In test [4], B3 showed a Kd of 5.2 nM.
